From PMC5464768, “ER retention is imposed by COPII protein sorting and attenuated by 4-phenylbutyrate” (eLife, 2017)

Molecular target: T1, 5-Fam-[…] (vesicular stomatitis virus)
T1 construct: also called fluorescent tracer peptide; fluorescent probe
Experiment: fluorescence polarisation
Conditions: both partners purified

B1: Sec24a (△1–340) (domain or fragment)
chain: LSLQPEGLRVVNLLQERNMLPSTPLKPPVPNLHEDIQKLNCNPELFRCTLTSIPQTQALLNKAKLPLGLLLHPFKDLVQLPVVTSSTIVRCRSCRTYINPFVSFLDQRRWKCNLCYRVNDVPEEFLYNPLTRVYGEPHRRPEVQNATIEFMAPSEYMLRPPQPPVYLFVFDVSHNAVETGYLNSVCQSLLDNLDLLPGNTRTKIGFITFDSTIHFYGLQESLSQPQMLIVSDIEDVFIPMPENLLVNLNESKELVQDLLKTLPQMFTKTLETQSALGPALQAAFKLMSPTGGRMSVFQTQLPTLGVGALKPREEPNHRSSAKDIHMTPSTDFYKKLALDCSGQQVAVDLFLLSGQYSDLASLGCISRYSAGSVYYYPSYHHQHNPVQVQKLQKELQRYLTRKIGFEAVMRIRCTKGLSIHTFHGNFFVRSTDLLSLPNVNPDAGYAVQMSVEESLTDTQLVSFQSALLYTSSKGERRIRVHTLCLPVVSTLNDVFLGADVQAISGLLANMAVDRSMTASLSDARDALVNAVIDSLSAYRSSVLSNQQPGLMVPFSLRLFPLFVLALLKQKSFQTGTNARLDERIFAMCQVKNQPLVYLMLTTHPSLYRVDNLSDEGALNISDRTIPQPPILQLSVEKLSRDGAFLMDAGSVLMLWVGKNCTQNFLSQVLGVQNYASIPQPMTDLPELDTPESARIIAFISWLREQRPFFPILYVIRDESPMKANFLQNMIEDRTESALSYYEFLLHIQQQVNK
notes: Sec24a, H. sapiens, lacking residues 1–340 (△1–340); Purified alone for fluorescence polarization and as the complex with Sec23a for crystallography; also called human Sec24a; source: High Five insect cells (baculovirus), purified (HisTrap HP, HiTrap Q, Superdex 200); not shown: His6, N-terminal, cleaved
  Kd: 14.2 µM
